# B1: λCI-ZipACTD (residues 186–328) [E. coli] / α-FtsZ fusion protein (wild-type E. coli FtsZ) [E. coli] (parent complex)
# chain 1: not shown
# chain 2: MFEPMELTNDAVIKVIGVGGGGGNAVEHMVRERIEGVEFFAVNTDAQALRKTAVGQTIQIGSGITKGLGAGANPEVGRNAADEDRDALRAALEGADMVFIAAGMGGGTGTGAAPVVAEVAKDLGILTVAVVTKPFNFEGKKRMAFAEQGITELSKHVDSLITIPNDKLLKVLGRGISLLDAFGAANDVLKGAVQGIAELITRPGLMNVDFADVRTVMSEMGYAMMGSGVASGEDRAEEAAEMAISSPLLEDIDLSGARGVLVNITAGFDLRLDEFETVGNTIRAFASDNATVVIGTSLDPDMNDELRVTVVATGIGMDKRPEITLVTNKQVQQPVMDRYQQHGMAPLTQEQKPVAKVVNDNAPQTAKEPDYLDIPAFLRKQAD
# Variants of: B1
# Experiment: bacterial two-hybrid β-galactosidase assay; 25 μM IPTG; parent: 720; read off a plot
row,Variant,response [Miller Units]
1,chain 2 D180N,~770
2,chain 2 F182S,~770
3,chain 2 L179R,~880
4,chain 2 S177P,~790
5,chain 2 L169P,~790
